Assay results: publication PMC9738585, “Unveiling the Metal-Dependent Aggregation Properties of the C-terminal Region of Amyloidogenic Intrinsically Disordered Protein Isoforms DPF3b and DPF3a” (International Journal of Molecular Sciences, 2022)

B1: C-terminal region of DPF3b (C-TERb) (domain or fragment, human, UniProt Q92784-1 200-378, looked up)
chain: CDICGKRYKNRPGLSYHYAHTHLASEEGDEAQDQETRSPPNHRNENHRPQKGPDGTVIPNNYCDFCLGGSNMNKKSGRPEELVSCADCGRSGHPTCLQFTLNMTEAVKTYKWQCIECKSCILCGTSENDDQLLFCDDCDRGYHMYCLNPPVAEPPEGSWSCHLCWELLKEKASAFGCQA
notes: Double-PHD fingers 3 isoform DPF3b (378 amino acids), human, Uniprot Q92784-1, residues 200-378 (C2H2, PHD-1 and PHD-2 zinc fingers); also called DPF3b C-terminus; source: E. coli BL21 Rosetta (DE3), purified (GSTrap FF, on-column TEV cleavage); not shown: GST, N-terminal, cleaved
B2: C-terminal region of DPF3a (C-TERa) (domain or fragment, human, UniProt Q92784-2 200-357, looked up)
chain: CDICGKRYKNRPGLSYHYAHTHLASEEGDEAQDQETRSPPNHRNENHRPQKGPDGTVIPNNYCDFCLGGSNMNKKSGRPEELVSCADCGRSAHLGGEGRKEKEAAAAARTTEDLFGSTSESDTSTFHGFDEDDLEEPRSCRGRRSGRGSPTADKKGSC
notes: Double-PHD fingers 3 isoform DPF3a (357 amino acids), human, Uniprot Q92784-2, residues 200-357 (C2H2, truncated PHD-1/2 and disordered C-terminal domain); also called DPF3a C-terminus; source: E. coli BL21 Rosetta (DE3), purified (GSTrap FF, on-column TEV cleavage); not shown: GST, N-terminal, cleaved

Molecular target: the molecule itself
Experiment: thioflavin T fluorescence; purified C-TER (~10 µM) incubated in TBS (50 mM Tris-HCl pH 8.0, 150 mM NaCl) at ~20 °C for 96 to 144 h; 10 µM ThT, excitation 440 nm, emission 485 nm; self-assembly into amyloid fibrils; also at ~5 µM with 100 µM Cu2+, Mg2+, Ni2+ or Zn2+

Protein	binding result
B1	binds
B2	binds
